Measured values from patent US20170097333A1 (Merck Sharp & Dohme, published 2017).

What was measured:
human CD3 (human) [1] = target: human CD3 (human) (UniProt P07766); assay: FACS staining of Jurkat clone G10 (passage P17), relative to control antibody mIgG1-pacblue
human CD3 (human) [2] = target: human CD3 (human) (UniProt P07766); assay: FACS staining of Jurkat clone F11, relative to control antibody mIgG1 pacblue
human CD3 (human) [3] = target: human CD3 (human) (UniProt P07766); assay: FACS staining of Jurkat clone G10 (passage P12), relative to control antibody mIgG1-pacblue
human CD3 (human) [4] = target: human CD3 (human) (UniProt P07766); assay: FACS staining of Jurkat clone E6, relative to control antibody mIgG1 pacblue
human CD3 (human) [5] = target: human CD3 (human) (UniProt P07766); assay: FACS staining of Jurkat clone G10 (passage P6), relative to control antibody mIgG1-pacblue
human CD3 (human) [6] = target: human CD3 (human) (UniProt P07766); assay: FACS staining of Jurkat clone G10 (passage P14), relative to control antibody mIgG1-pacblue
human CD3 (human) [7] = target: human CD3 (human) (UniProt P07766); assay: FACS staining of Jurkat clone F5, relative to control antibody mIgG1 pacblue
human CD3 (human) [8] = target: human CD3 (human) (UniProt P07766); assay: FACS staining of Jurkat clone G3, relative to control antibody mIgG1 pacblue
human CD3 (human) [9] = target: human CD3 (human) (UniProt P07766); assay: FACS staining of Jurkat clone H3, relative to control antibody mIgG1 pacblue
human CD3 (human) [10] = target: human CD3 (human) (UniProt P07766); assay: FACS staining of Jurkat clone A1, relative to control antibody mIgG1 pacblue
human CD3 (human) [11] = target: human CD3 (human) (UniProt P07766); assay: FACS staining of Jurkat clone G10 (passage ~P3), relative to control antibody mIgG1-pacblue
human CD3 (human) [12] = target: human CD3 (human) (UniProt P07766); assay: FACS staining of Jurkat clone G10, relative to control antibody mIgG1 pacblue
human CD3 (human) [13] = target: human CD3 (human) (UniProt P07766); assay: FACS staining of Jurkat clone G10 (passage P4), relative to control antibody mIgG1-pacblue
human CD3 (human) [14] = target: human CD3 (human) (UniProt P07766); assay: FACS staining of Jurkat clone D7, relative to control antibody mIgG1 pacblue
human LAG3 [15] = target: T1, human LAG3 (human, UniProt P18627 23-525); assay: FACS staining of human LAG3 Jurkat clone G10 (passage P14), relative to control antibody Herceptin-DyLight 650
T1 construct: Expressed from a transgene on Jurkat cells
T1 sequence: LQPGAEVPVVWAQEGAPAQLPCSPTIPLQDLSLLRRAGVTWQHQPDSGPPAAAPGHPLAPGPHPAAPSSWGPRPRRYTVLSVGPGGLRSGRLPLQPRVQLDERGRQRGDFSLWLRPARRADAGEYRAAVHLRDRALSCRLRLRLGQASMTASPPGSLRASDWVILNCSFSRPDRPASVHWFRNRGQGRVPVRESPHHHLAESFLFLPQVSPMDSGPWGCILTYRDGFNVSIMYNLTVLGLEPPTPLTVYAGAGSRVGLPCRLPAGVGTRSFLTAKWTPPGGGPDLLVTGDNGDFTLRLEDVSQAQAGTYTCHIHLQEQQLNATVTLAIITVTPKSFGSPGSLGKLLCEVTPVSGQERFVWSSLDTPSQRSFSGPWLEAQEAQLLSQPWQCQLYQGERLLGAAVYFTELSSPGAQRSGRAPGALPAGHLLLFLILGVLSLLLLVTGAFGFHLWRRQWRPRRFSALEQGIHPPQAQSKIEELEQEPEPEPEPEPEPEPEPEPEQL

human LAG3 [16] = target: T1, human LAG3; assay: FACS staining of human LAG3 Jurkat clone G10 (passage P17), relative to control antibody Herceptin-DyLight 650
human LAG3 [17] = target: T1, human LAG3; assay: FACS staining of human LAG3 Jurkat clone G10 (passage ~P3), relative to control antibody Herceptin-DyLight 650
human LAG3 [18] = target: T1, human LAG3; assay: FACS staining of human LAG3 Jurkat clone G10 (passage P12), relative to control antibody Herceptin-DyLight 650
human LAG3 [19] = target: T1, human LAG3; assay: FACS staining of human LAG3 Jurkat clone G10 (passage P4), relative to control antibody Herceptin-DyLight 650
human LAG3 [20] = target: T1, human LAG3; assay: FACS staining of human LAG3 Jurkat clone G10 (passage P6), relative to control antibody Herceptin-DyLight 650

Chain of human CD3 (human) (P07766 23-207): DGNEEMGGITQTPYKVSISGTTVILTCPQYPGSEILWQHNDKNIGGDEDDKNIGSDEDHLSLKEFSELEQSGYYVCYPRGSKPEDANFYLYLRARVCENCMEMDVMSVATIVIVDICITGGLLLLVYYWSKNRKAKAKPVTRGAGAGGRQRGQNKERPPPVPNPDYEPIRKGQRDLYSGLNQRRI

Question: For “maHuCD3 pacblue (mouse anti-human CD3E antibody Clone SP34-2)”, which CD3 expression (Fold Change) (human CD3 (human) [1]) is on record?
Answer: 4.7 fold

Question: What about the CD3 expression (Fold Change) (human CD3 (human) [2]) of the same molecule?
Answer: 3.9 fold

Question: What about the CD3 expression (Fold Change) (human CD3 (human) [3]) of the same molecule?
Answer: 6.4 fold

Question: And the CD3 expression (Fold Change) (human CD3 (human) [4])?
Answer: 8.5 fold

Question: And the CD3 expression (Fold Change) (human CD3 (human) [5])?
Answer: 8 fold

Question: What about the CD3 expression (Fold Change) (human CD3 (human) [6]) of the same molecule?
Answer: 6.9 fold

Question: What about the CD3 expression (Fold Change) (human CD3 (human) [7]) of the same molecule?
Answer: 7.5 fold

Question: And the CD3 expression (Fold Change) (human CD3 (human) [8])?
Answer: 5.3 fold

Question: What about the CD3 expression (Fold Change) (human CD3 (human) [9]) of the same molecule?
Answer: 5 fold

Question: What about the CD3 expression (Fold Change) (human CD3 (human) [10]) of the same molecule?
Answer: 3.5 fold

Question: What about the CD3 expression (Fold Change) (human CD3 (human) [11]) of the same molecule?
Answer: 10.9 fold

Question: And the CD3 expression (Fold Change) (human CD3 (human) [12])?
Answer: 8.4 fold

Question: And the CD3 expression (Fold Change) (human CD3 (human) [13])?
Answer: 7.2 fold

Question: What about the CD3 expression (Fold Change) (human CD3 (human) [14]) of the same molecule?
Answer: 3.4 fold

B1: Ab6: humanized anti-human LAG3 VH6 N55D/VL3, IgG4 S228P/Kappa (antibody, V domains shown)
VH: QMQLVQSGPEVKKPGTSVKVSCKASGYTFTDYNVDWVRQARGQRLEWIGDINPNDGGTIYAQKFQERVTITVDKSTSTAYMELSSLRSEDTAVYYCARNYRWFGAMDHWGQGTTVTVSS
VL: DIVMTQTPLSLSVTPGQPASISCKASQSLDYEGDSDMNWYLQKPGQPPQLLIYGASNLESGVPDRFSGSGSGTDFTLKISRVEAEDVGVYYCQQSTEDPRTFGGGTKVEIKR
notes: also called 51AHH; light chain 45AGX
Question: How did the “Lag3 Expression (Fold Change)” value (human LAG3 [15]) turn out when B1 was run?
Answer: 7.2 fold

Question: What about the “Lag3 Expression (Fold Change)” value (human LAG3 [16]) of the same molecule?
Answer: 7.3 fold

Question: What about the “Lag3 Expression (Fold Change)” value (human LAG3 [17]) of the same molecule?
Answer: 6.1 fold

Question: What about the “Lag3 Expression (Fold Change)” value (human LAG3 [18]) of the same molecule?
Answer: 7.3 fold

Question: And the “Lag3 Expression (Fold Change)” value (human LAG3 [19])?
Answer: 5.6 fold

Question: What about the “Lag3 Expression (Fold Change)” value (human LAG3 [20]) of the same molecule?
Answer: 2 fold
